# Target: hemagglutinin (HA) of influenza A/Env/MPJ193/09 (H3N?) (influenza A virus)
# Test: cell-based or functional assay
substance,measurement,value
MD3606 (Fc fusion),Average neutralization titers,11.8 nM

# — patent publication US20190359693A1
